Read-outs that look alike come from different tables or passages of the source.
B1: He9/L3 (antibody, IgG4, V domains shown)
VH: EVQLLESGGGLVQPGGSLRLSCAASGFSFSDYYLYWVRQAPGKGLEWVATISVGGGQTSYADSVKGRFTISRDNSKNTLYLQMNSLRAEDTAMYYCARAMYYGPAWFAYWGQGTLVTVSS
VL: DIVMTQSPDSLAVSLGERATINCKSSQSLLNSANQKNYLAWYQQKPGQPPKLLIYFASTRESGVPDRFSGSGSGTDFTLTISSLQAEDVAVYYCQSHFPFPFTFGGGTKVEIK
notes: IgG4 S241P, kappa; also called He9 / 3
B2: He9/L17 (antibody, IgG4, V domains shown)
VH: EVQLLESGGGLVQPGGSLRLSCAASGFSFSDYYLYWVRQAPGKGLEWVATISVGGGQTSYADSVKGRFTISRDNSKNTLYLQMNSLRAEDTAMYYCARAMYYGPAWFAYWGQGTLVTVSS
VL: DIVMTQSPDSLAVSLGERATINCKSSQSLLNSANQKNYLAWYQQKPGQPPKLLIYFASTRESGVPDRFSGSGSGTDFTLTISSLQAEDVAVYYCQSHYPYPYTFGGGTKVEIK
notes: IgG4 S241P, kappa; also called He9 / 17
B3: Parent VH/L4#2 (antibody, IgG4, V domains shown)
VH: EVQLLESGGGLVQPGGSLRLSCAASGFSFSDYYLYWVRQAPGKGLEWVATISVGGGQTSYADSVKGRFTISRDNSKNTLYLQMNSLRAEDTAMYYCTRGLYYGPAWFAYWGQGTLVTVSS
VL: DIVMTQSPDSLAVSLGERATINCKSSQSLLNSANQKNYLAWYQQKPGQPPKLLIYFASTRESGVPDRFSGSGSGTDFTLTISSLQAEDVAVYYCQSHYPYPYTFGGGTKVEIK
notes: IgG4 S241P, kappa; also called VHp/L4 #2; VH2 N56Q / 4#2
B4: He9/L4#2 (antibody, IgG4, V domains shown)
VH: EVQLLESGGGLVQPGGSLRLSCAASGFSFSDYYLYWVRQAPGKGLEWVATISVGGGQTSYADSVKGRFTISRDNSKNTLYLQMNSLRAEDTAMYYCARAMYYGPAWFAYWGQGTLVTVSS
VL: DIVMTQSPDSLAVSLGERATINCKSSQSLLNSANQKNYLAWYQQKPGQPPKLLIYFASTRESGVPDRFSGSGSGTDFTLTISSLQAEDVAVYYCQSHYPYPYTFGGGTKVEIK
notes: IgG4 S241P, kappa
B5: Parent VH/L18 (antibody, IgG4, V domains shown)
VH: EVQLLESGGGLVQPGGSLRLSCAASGFSFSDYYLYWVRQAPGKGLEWVATISVGGGQTSYADSVKGRFTISRDNSKNTLYLQMNSLRAEDTAMYYCTRGLYYGPAWFAYWGQGTLVTVSS
VL: DIVMTQSPDSLAVSLGERATINCKSSQSLLNSANQKNYLAWYQQKPGQPPKLLIYFASTRESGVPDRFSGSGSGTDFTLTISSLQAEDVAVYYCQSHFPYPFTFGGGTKVEIK
notes: IgG4 S241P, kappa; also called VHp/L18; VH2 N56Q / 18
B6: VH1 N56Q/VK4 S27(f)A (antibody, human IgG4, V domains shown)
VH: EVQLLESGGGLVQPGGSLRLSCAASGFSFSDYYLYWVRQAPGKGLEWVATISVGGGQTSYPDSVKGRFTISRDNSKNTLYLQMNSLRAEDTAMYYCTRGLYYGPAWFAYWGQGTLVTVSS
VL: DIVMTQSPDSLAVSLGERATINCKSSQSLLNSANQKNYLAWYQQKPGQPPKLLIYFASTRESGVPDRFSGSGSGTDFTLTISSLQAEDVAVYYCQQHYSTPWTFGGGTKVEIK
notes: aglycosylated humanized variant; human IgG4

Columns and labels:
[1] = biological target: T1, CEACAM1 (Sino Biological) (human, UniProt P13688 35-428, limits assumed); assay: SPR multi-cycle, IgG on Protein A
T1 construct: may be the same as CEACAM1-HIS; also called hCEACAM1; biotinylated soluble CEACAM1
T1 sequence: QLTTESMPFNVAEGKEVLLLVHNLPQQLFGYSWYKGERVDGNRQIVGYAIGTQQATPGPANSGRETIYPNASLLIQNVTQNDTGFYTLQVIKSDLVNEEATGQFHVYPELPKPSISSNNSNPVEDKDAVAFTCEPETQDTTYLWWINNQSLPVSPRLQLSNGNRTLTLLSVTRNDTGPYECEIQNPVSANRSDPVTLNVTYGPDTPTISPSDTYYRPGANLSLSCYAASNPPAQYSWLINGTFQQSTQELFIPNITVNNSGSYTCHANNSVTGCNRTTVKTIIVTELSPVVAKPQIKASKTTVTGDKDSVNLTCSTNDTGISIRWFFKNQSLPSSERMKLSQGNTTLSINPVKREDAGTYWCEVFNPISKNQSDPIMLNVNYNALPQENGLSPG
Experimental: Multi-cycle kinetics analysis was performed on the twelve lead antibodies using a Biacore T200 instrument running Biacore T200 Evaluation Software V3.0.1 (Uppsala, Sweden) to establish an accurate affinity for CEACAM1. The purified antibodies were diluted to a concentration of […] in HBS-P+. At the start of each cycle, each antibody was captured on the Protein A surface to give an RL of ˜100 RU. Following capture, the surface was allowed to stabilize. Kinetic data was obtained using a flow rate of […] to minimize any potential mass transfer effects. For the kinetics analysis, CEACAM1 was used. Multiple repeats of the blank ([…]) and a repeat of a single concentration of the analyte were programmed into the kinetic run in order to check the stability of both the surface and analyte over the kinetic cycles. For kinetic analysis, a two-fold dilution range was selected from 200 to 3.125 nM CEACAM1. The association phase of CEACAM1 was monitored for 275 seconds and the dissociation phase was measured for 250 seconds. Regeneration of the Protein A surface was conducted using two injections of 10 mM glycine-HCL pH 1.5 at the end of each cycle.
The signal from the reference channel Fc1 was subtracted from that of Fc2, Fc3 and Fc4 to correct for differences in non-specific binding to a reference surface, and a global Rmax parameter was used in the 1-to-1 binding model. The relative KD was calculated by dividing the KD of the RSB02 Parent by that of the humanized and affinity matured variants on the same chip.

[2] = biological target: T2, CEACAM5 (Sino Biological) (human, UniProt P06731 35-685); assay: binding ELISA on plate-coated CEACAM (0.5 µg/mL); antibody at 1.67, 0.062 and 0.0069 µg/mL; signal as % of parent IgG on CEACAM1 at 1.67 µg/mL on the same plate
T2 construct: also called hCEACAM5
T2 sequence (looked up): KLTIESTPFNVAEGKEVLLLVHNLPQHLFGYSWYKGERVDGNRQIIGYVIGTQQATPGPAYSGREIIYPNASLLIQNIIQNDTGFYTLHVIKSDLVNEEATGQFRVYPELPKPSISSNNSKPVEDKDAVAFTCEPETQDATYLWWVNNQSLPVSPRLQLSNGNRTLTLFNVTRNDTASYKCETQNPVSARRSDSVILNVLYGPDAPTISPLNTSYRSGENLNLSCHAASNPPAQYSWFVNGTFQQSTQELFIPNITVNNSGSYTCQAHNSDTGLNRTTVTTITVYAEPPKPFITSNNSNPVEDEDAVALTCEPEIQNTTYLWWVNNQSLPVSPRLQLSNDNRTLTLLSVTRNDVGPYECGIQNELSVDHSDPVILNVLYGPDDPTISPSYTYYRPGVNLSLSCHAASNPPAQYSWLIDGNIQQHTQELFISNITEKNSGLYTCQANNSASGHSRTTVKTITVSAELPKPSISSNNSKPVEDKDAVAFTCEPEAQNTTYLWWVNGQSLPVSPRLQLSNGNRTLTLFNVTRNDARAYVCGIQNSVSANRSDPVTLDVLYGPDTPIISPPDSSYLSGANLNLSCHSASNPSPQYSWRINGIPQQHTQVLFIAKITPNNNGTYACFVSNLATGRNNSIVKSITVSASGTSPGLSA

[3] = biological target: T1, CEACAM1 (Sino Biological); assay: SPR single-cycle
Summary of the method: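 Humanized affinity-matured IgGs from crude supernatants captured on Protein A to ~100 RU, with CEACAM1 analyte injected at 25–100 nM (three-point, two-fold) in HBS-P+ without regeneration. 200 s association per injection, 300 s single dissociation; reference-channel and blank subtracted.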

[4] = biological target: T3, CEACAM6 (Sino Biological) (human, UniProt P40199 35-320); assay: binding ELISA on plate-coated CEACAM (0.5 µg/mL); antibody at 1.67, 0.062 and 0.0069 µg/mL; signal as % of parent IgG on CEACAM1 at 1.67 µg/mL on the same plate
T3 construct: also called hCEACAM6
T3 sequence (looked up): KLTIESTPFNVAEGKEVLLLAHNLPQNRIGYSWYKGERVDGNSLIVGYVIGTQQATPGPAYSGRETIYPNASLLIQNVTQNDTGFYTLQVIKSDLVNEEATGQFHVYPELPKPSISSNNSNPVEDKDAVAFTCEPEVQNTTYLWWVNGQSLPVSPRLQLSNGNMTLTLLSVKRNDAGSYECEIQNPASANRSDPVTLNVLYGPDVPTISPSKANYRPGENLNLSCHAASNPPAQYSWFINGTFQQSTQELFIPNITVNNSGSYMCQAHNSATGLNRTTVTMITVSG

[5] = biological target: T4, CEACAM3 (Sino Biological) (human, UniProt P40198 35-155, limits assumed); assay: as above
T4 construct: also called hCEACAM3
T4 sequence (looked up): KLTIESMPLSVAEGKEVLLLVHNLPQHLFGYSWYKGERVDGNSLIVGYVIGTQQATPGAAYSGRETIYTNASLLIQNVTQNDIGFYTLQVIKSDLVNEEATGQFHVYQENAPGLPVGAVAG

[6] = biological target: T2, CEACAM5 (Sino Biological); assay: as above; remark: listed apart in the source
[7] = biological target: T5, CEACAM1 on transfected HeLa cells (Homo sapiens (Human), UniProt P13688 35-526); assay: flow cytometry, transfected HeLa
T5 construct: also called C1
T5 sequence: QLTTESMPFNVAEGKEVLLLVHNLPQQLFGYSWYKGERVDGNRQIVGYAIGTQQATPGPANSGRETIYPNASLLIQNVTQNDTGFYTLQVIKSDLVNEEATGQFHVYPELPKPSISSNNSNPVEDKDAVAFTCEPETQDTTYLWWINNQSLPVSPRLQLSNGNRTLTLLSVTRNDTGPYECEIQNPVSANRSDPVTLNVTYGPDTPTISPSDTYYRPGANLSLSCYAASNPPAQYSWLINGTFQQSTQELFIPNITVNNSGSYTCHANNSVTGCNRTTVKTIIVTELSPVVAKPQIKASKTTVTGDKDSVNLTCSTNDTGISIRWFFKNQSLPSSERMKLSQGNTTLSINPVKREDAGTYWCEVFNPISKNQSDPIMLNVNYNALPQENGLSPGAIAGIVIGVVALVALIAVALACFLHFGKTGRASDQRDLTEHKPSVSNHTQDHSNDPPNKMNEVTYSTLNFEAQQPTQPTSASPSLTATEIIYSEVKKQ
Experimental: (§1) Binding selectivity of the selected antibody variants was assessed by flow cytometry using HeLa cells transfected with vectors expressing CEACAM1, CEACAM5, and CEACAM6, respectively. The resulting cells were used for flow cytometry experiments and were cultured at 37° C., 5.0% CO₂ in Dulbecco's modified Eagle's medium supplemented with 10% fetal bovine serum, penicillin (100 U/ml) and dihydrostreptomycin ([…]). Cell lines were stained with the indicated antibodies followed by fluorochrome-conjugated monoclonal antibody specific for the indicated antibody isotypes such as human IgG4 or mouse IgG1 together with viable dye (DAPI). Data were acquired with a Cytoflex flow cytometer ([…]) and analyzed with FlowJo software (TreeStar, V7.6.5 for Windows).

[8] = biological target: T6, CEACAM5 on transfected HeLa cells (UniProt P06731 35-685); assay: flow cytometry, transfected HeLa
T6 construct: whole, on cells; also called C5
T6 sequence (looked up): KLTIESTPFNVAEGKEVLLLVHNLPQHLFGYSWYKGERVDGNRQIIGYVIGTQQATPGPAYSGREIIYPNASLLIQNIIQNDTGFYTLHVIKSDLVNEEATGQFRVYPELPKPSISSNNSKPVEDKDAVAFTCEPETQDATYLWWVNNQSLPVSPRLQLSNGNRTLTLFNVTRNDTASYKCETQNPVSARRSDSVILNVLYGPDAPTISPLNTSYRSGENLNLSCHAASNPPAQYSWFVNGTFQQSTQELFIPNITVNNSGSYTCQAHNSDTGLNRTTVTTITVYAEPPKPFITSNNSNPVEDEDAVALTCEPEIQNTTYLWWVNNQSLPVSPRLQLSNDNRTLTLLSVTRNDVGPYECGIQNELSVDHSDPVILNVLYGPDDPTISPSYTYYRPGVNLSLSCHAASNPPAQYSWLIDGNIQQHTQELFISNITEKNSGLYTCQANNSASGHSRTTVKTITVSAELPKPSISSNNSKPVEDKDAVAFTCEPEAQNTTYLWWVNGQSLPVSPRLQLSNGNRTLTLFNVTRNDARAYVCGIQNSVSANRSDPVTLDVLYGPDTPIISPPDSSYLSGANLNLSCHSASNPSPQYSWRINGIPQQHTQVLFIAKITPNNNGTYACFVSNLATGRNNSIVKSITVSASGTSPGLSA
Experimental: as §1

Binder	Kd [1] [nM]	koff [1] [s⁻¹]	kon [1] [M⁻¹ s⁻¹]	relative KD to Parent [1] [ratio]	binding result [2]	Kd [3] [nM]	fold better than Parent (KD) [3] [fold]	binding result [4]	binding result [5]	binding result [6]	relative fluorescence intensity [7]	relative fluorescence intensity [8]
B1	31.6	0.00139	44000	4.15	binds	27	5.85	–	–	–	–	–
B2	40.9	0.0015	36700	4.55	binds	33	4.88	–	–	–	–	–
B3	147	0.00437	29800	1.3	–	163	3.38	no binding (tested: 1.67 µg/mL)	no binding (tested: 1.67 µg/mL)	–	–	–
B4	33.7	0.0013	38600	3.89	–	57	9.71	–	–	binds	–	–
B5	101	0.00362	35700	1.84	–	56	2.83	no binding (tested: 1.67 µg/mL)	no binding (tested: 1.67 µg/mL)	–	–	–
B6	–	–	–	–	–	–	–	–	–	–	87.1	0.0622
